Experiment [1] concerns the target CD3 (TCR/CD3 complex) on the surface of Jurkat cells, PBMCs and T responder cells (UniProt P07766). In words: flow cytometry, PBMCs stained with PE-labeled OKT3 Fab-multimers and then treated with D-biotin, which disrupts the Fab to Strep-Tactin bond; remaining PE signal on live cells.
Experiment [2] has the same target. In words: flow cytometry, freshly isolated PBMCs stained with PE-labeled OKT3 Fab-multimers, before D-biotin; only live (PI negative) cells shown.
Experiment [3] has the same target. Description: flow cytometry, second staining with PE-labeled OKT3 Fab-multimers of PBMCs that had been stained, treated with D-biotin and washed (control); live cells.
For experiment [4], the target named is CD28 on the surface of PBMCs and T cells (human) (UniProt P10747). Description: flow cytometry, freshly isolated PBMCs before selection stained with fluorescent αCD28 Fab-multimers; only live (PI negative) CD3+ cells shown.
Experiment [5] shares this target. Description: flow cytometry, CD28+ cells isolated by Fab-multimer magnetic selection, released with D-biotin, washed and stained again with CD28 Fab-multimers; live CD3+ cells.
Experiment [6] shares this target. In words: flow cytometry, selected CD28+ cells after D-biotin and washing, stained with an α-Ig kappa light chain mAb to detect remaining Fab monomers; live CD3+ cells. The same mAb on cells before selection (negative control, no Fab) gives 2.73 in the gate.

Chain of CD3 (TCR/CD3 complex) on the surface of Jurkat cells, PBMCs and T responder cells (P07766 23-207, one chain of several): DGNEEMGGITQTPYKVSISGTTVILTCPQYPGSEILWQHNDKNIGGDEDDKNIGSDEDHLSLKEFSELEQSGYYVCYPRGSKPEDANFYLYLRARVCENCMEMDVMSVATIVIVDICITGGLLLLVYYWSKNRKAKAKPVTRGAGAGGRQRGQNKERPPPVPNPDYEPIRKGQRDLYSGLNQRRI

Consider “OKT3 Fab fragments multimerized with Strep-Tactin”, for which the percentage of cells within gate stood at 0.005% in experiment [1], 64.5% in experiment [2] and 64.7% in experiment [3].
“anti-CD28 Fab fragments (from CD28.3) multimerized with Strep-Tactin (from UniProt P22629 38-163)”: the values for the percentage of cells within gate in experiment [4] and in experiment [5] were 77.9% and 96.7%, respectively.
For the substance “αCD28 Fab fragment derived from the monoclonal anti-human CD28 antibody CD28.3, heavy chain C-terminally fused to the Twin-Strep-tag (monomeric)”, the percentage of cells within gate in experiment [6] is 5.91%.

(Values after patent US20220195388A1.)
